Source: the supplement of paper PMC10126150
± gives the standard deviation of the averaged measurements.

tested on: ATP; assay: switch fluorescence ratio, 500 uM ATP over buffer (Cy3 cluster intensity, sum of 5 cycles each) (fold (ratio)); higher = stronger signal-on switching upon ATP binding; sequences stand for … in TCGTCGGCAGCGTCAGATGTGTATAAGAGACAGTTTTTTTTTTTTTTTTTTTTTTTTT…TC; settings: aptamer strand: ATP DNA aptamer (quencher-CACCTGGGGGAGTATTGCGGAGGAAGG + anchor), 100 nM annealed; ATP concentration: 500 uM
Method in brief: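 For every switch-domain sequence, the fluorescence ratio is the mean of per-cluster values, each being summed target-cycle Cy3 intensity over summed buffer-cycle Cy3 intensity. Clusters outside 100-1000 RFU were excluded. On a modified Illumina MiSeq flow-cell, the Cy3-labelled switching-strand clusters were annealed to 100 nM quencher-labelled ATP aptamer, imaged in selection buffer and then after 15 min with 500 uM ATP at 22 °C. Five such cycles were run, with NaOH stripping and re-annealing between them.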
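Also: ATP exposure 15 min at 22 °C before imaging.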

Row | Sequence | switch fluorescence ratio
1 | TCGGGGCTTT | 0.982 ± 0.022
2 | TTTTCTTTTA | 1.001 ± 0.0032
3 | GAGTTGTGTA | 0.985 ± 0.035
4 | TTGTTTAGGA | 0.9763 ± 0.0012
5 | AGGCTAAAGG | 1 ± 0.026
6 | TTATCGCTGC | 1.06 ± 0.11
7 | ATATCCTAGT | 0.987 ± 0.029
8 | GTGGTAACCT | 1.4 ± 0.12
9 | GGGCGGAGCG | 0.999 ± 0.036
10 | AAGTAGTGCG | 1.01 ± 0.041
11 | AGGAAAGTAG | 0.9719 ± 0.0097
12 | TGATGGTGTC | 0.968 ± 0.011
13 | AGGAGAGGGA | 0.995 ± 0.038
14 | TGAGCAGAGG | 1.04 ± 0.015
15 | AAATTTAGTT | 1.017 ± 0.006
16 | TAATATGATT | 0.999 ± 0.029
17 | ACAGGGGGAA | 1.01 ± 0.024
18 | CTTATTAGCG | 1.03 ± 0.019
19 | CCGTCGGGGT | 1.09 ± 0.025
20 | TTGAGTGGTT | 1.01 ± 0.092
21 | ACTGGTGGTG | 0.97817 ± 0.0005
22 | ATTGGGTTGT | 0.973 ± 0.015
23 | AGTATCGAGC | 1.02 ± 0.049

Row | Sequence | switch fluorescence ratio
24 | CGTCACCGGG | 1.11 ± 0.032
25 | CCATAGTGAC | 2.18 ± 0.18
26 | CGCAGGCTTG | 1.04 ± 0.043
27 | TTAAGAAGAC | 1.04 ± 0.018
28 | GGGAGATTTT | 1.01 ± 0.035
29 | TTGCTAGCCT | 1.01 ± 0.021
30 | ACATGGGGTT | 0.998 ± 0.03
31 | AGTTATTAGG | 1.02 ± 0.032
32 | AACCGTTCGA | 1.07 ± 0.046
33 | GACTATGAGA | 0.9936 ± 0.0039
34 | TTGAGATAAG | 0.9819 ± 0.0014
35 | AGATGAGGGT | 1 ± 0.02
36 | GCGGGGTTAT | 1.03 ± 0.011
37 | TCAGGGGATG | 0.99 ± 0.026
38 | TAGAAATTGG | 1.03 ± 0.03
39 | ATTGTGGGAC | 0.996 ± 0.077
40 | GAGAGTTGGT | 1.007 ± 0.0073
41 | ACGCCTACGA | 1.15 ± 0.09
42 | GGGGGCATAA | 1.03 ± 0.076
43 | GGGGAACAGT | 0.979 ± 0.043
44 | CGACGAGTAA | 1.32 ± 0.36
45 | TAGTTTGGCA | 0.985 ± 0.037
46 | TAGGTTTGGC | 1.03 ± 0.024

Row | Sequence | switch fluorescence ratio
47 | TTGTTAAAGT | 1 ± 0.038
48 | TAATATCATT | 1 ± 0.019
49 | GACGATGCCA | 1.16 ± 0.035
50 | TTAGATTGTG | 0.978 ± 0.03
51 | CGTTAAGGGA | 0.978 ± 0.021
52 | TGGGTTAGGC | 0.97 ± 0.013
53 | AAGGAAGACA | 0.995 ± 0.03
54 | AATTAATATT | 0.988 ± 0.021
55 | TGACAGTTGG | 1.017 ± 0.0055
56 | ACTTACTATC | 1.193 ± 0.0046
57 | AGGGCGGTAT | 1.0286 ± 0.00059
58 | ATGTTTTTGC | 1.04 ± 0.1
59 | TTTTGCGATC | 1.14 ± 0.021
60 | TTATTTGTGT | 0.987 ± 0.042
61 | TAGGGGGTTT | 0.99 ± 0.032
62 | ACTGTACACC | 1.46 ± 0.026
63 | GGGCTGGACG | 1 ± 0.043
64 | TTGTTAGGCT | 1.03 ± 0.041
65 | TAAGGGTGA | 1.03 ± 0.015
66 | AGGCTTACTC | 1.39 ± 0.028
67 | GCTAAAAAGC | 0.998 ± 0.033
68 | GGTACCACTT | 0.992 ± 0.039
69 | GGTTATTTTT | 1.01 ± 0.036

Row | Sequence | switch fluorescence ratio
70 | TCGTGAAGCG | 1.04 ± 0.025
71 | TGGATCAAAT | 0.9705 ± 0.0049
72 | GGGGTTATTT | 0.988 ± 0.038
73 | GTATTATTTA | 1 ± 0.022
74 | CAAGTGAATG | 1.01 ± 0.017
75 | TGTAATATGG | 1.1 ± 0.14
76 | GATCATATTT | 1 ± 0.017
77 | CGTGAGGGGT | 0.994 ± 0.026
78 | CGAATAAGAA | 0.9383 ± 0.0074
79 | GGGGTGTTTG | 0.981 ± 0.022
80 | TTTACGATGC | 1.05 ± 0.0062
81 | AGGTTCATTA | 1.01 ± 0.023
82 | GACATTTTTT | 0.978 ± 0.036
83 | TTTTCCTTTC | 1.206 ± 0.011
84 | AGTGCGCTAT | 1.03 ± 0.01
85 | ACTAGAAGGG | 0.9833 ± 0.0037
86 | GCGCTAGATG | 1.008 ± 0.0093
87 | TTTTCGAAAT | 1.01 ± 0.024
88 | GCTTGGCTTG | 1.02 ± 0.025
89 | AAAATAAGAG | 1.009 ± 0.0037
90 | GGAAGGGAAC | 0.988 ± 0.033
91 | TTCTTTTGTA | 1.06 ± 0.076
92 | TAAGTTTGCA | 1.003 ± 0.0077

Row | Sequence | switch fluorescence ratio
93 | AGTATGTATA | 0.9957 ± 0.0083
94 | TCTGTGACTA | 1.06 ± 0.044
95 | TTGCTCTTGG | 0.956 ± 0.0095
96 | GCTATTTGGA | 0.997 ± 0.012
97 | TGAAAGGGAT | 0.988 ± 0.077
98 | GAGCTGTATG | 1.03 ± 0.014
99 | AGAAGCTAGT | 0.983 ± 0.044
100 | GGGGGGTCAG | 1.01 ± 0.025
101 | GGGGACCTAG | 1.01 ± 0.015
102 | GCAAGGGGTT | 1 ± 0.063
103 | CCAAGGAAAA | 1.04 ± 0.17
104 | ATGTTAATCT | 1.02 ± 0.035
105 | TCGTGGTTTC | 0.9823 ± 0.0069
106 | TTGCATGTTT | 1.15 ± 0.3
107 | GAGCAGAGGT | 0.984 ± 0.011
108 | TCGTTGGCGG | 0.951 ± 0.019
109 | CTTGATAAAA | 1.01 ± 0.017
110 | ATTCGCAGCC | 1.55 ± 0.029
111 | TTAAGGACGG | 0.994 ± 0.065
112 | ATAGGGGGAT | 0.993 ± 0.015
113 | AGAGCAAGGT | 1.08 ± 0.035
114 | TTTTGAAGGT | 0.997 ± 0.0099
115 | ATCAGAATCC | 1.04 ± 0.013

Row | Sequence | switch fluorescence ratio
116 | TAGTCAGAGG | 1.01 ± 0.012
117 | AACTTTAGTT | 1.02 ± 0.027
118 | TTGGGCAGGA | 1.06 ± 0.047
119 | TGCGCTTTTT | 1.03 ± 0.061
120 | TGCAGTGTGC | 1.01 ± 0.015
121 | GCTGGTGGGG | 0.964 ± 0.05
122 | CGGCTACATT | 0.9995 ± 0.0034
123 | TCAAAATGCA | 0.9976 ± 0.0092
124 | AGTGGCATTA | 0.985 ± 0.028
125 | TGATGGGGAT | 1.03 ± 0.017
126 | TGGGAGCATA | 1.05 ± 0.022
127 | AATGTAAGGA | 1.03 ± 0.065
128 | CGCATAGGCT | 1.11 ± 0.18
129 | GGGGGTTGGG | 1.01 ± 0.043
130 | TATATCTTCA | 1.017 ± 0.0055
131 | CGGGTGGTTG | 1.04 ± 0.04
132 | TCAGTCGTGG | 0.9928 ± 0.0033
133 | GTGTAAGGTA | 1.02 ± 0.018
134 | CAAAAGTCGG | 1.02 ± 0.012
135 | GTTGTATGTG | 0.965 ± 0.047
136 | AGATTTGGCA | 0.988 ± 0.03
137 | GGGTGGCGCC | 0.988 ± 0.012
138 | TTTTTTTAAA | 0.999 ± 0.027

Row | Sequence | switch fluorescence ratio
139 | ACTTGTTTCG | 0.961 ± 0.037
140 | CGGAAGTATG | 1.04 ± 0.025
141 | TGTCGTTTTT | 1.01 ± 0.039
142 | TTTCTCCGTT | 1.44 ± 0.55
143 | CTTAGGTGAC | 1.034 ± 0.004
144 | CGTGTTTGTT | 0.988 ± 0.022
145 | CGGACGGAAG | 1.01 ± 0.0078
146 | ATGTATAAAT | 0.9743 ± 0.009
147 | GGGAGGGGG | 0.965 ± 0.045
148 | GTGGGTCGGT | 0.979 ± 0.036
149 | AGGCTATGTA | 0.9998 ± 0.0042
150 | ATATTTAAGG | 0.995 ± 0.029
151 | GCACTGTGGG | 1 ± 0.016
152 | TCAGGGGCGC | 0.971 ± 0.031
153 | CTTGTATGGG | 1.01 ± 0.029
154 | AAGGACTTGG | 1.01 ± 0.014
155 | TGGGTCGGGG | 0.985 ± 0.016
156 | TGGGTGTCCA | 1 ± 0.021
157 | TATTTGAGGG | 1 ± 0.041
